B1: Cold shock protein CspB, P41016 (parent)
chain: MQRGKVKWFNNEKGYGFIEVEGGSDVFVHFTAIQGEGFKTLEEGQEVSFEIVQGNRGPQAANVVKL

Variants of: B1
Settings: Bacillus caldolyticus, pH 7, Thermal, CD, Sodium cacodylate-HCl 0.1 M, reversible: yes, structure 1C9O, whole UniProt chain shown; for ddG of mutation (higher = less stable) / unfolding free energy: 70 °C

| Variant | ddG of mutation (higher = less stable) (NaCl 2 M) [kcal/mol] | unfolding free energy (NaCl 2 M) [kcal/mol] | ddG of mutation (higher = less stable) [kcal/mol] | unfolding free energy [kcal/mol] | Tm [°C] | change of melting temperature, mutant - wild type (higher = more stable) [°C] | unfolding enthalpy (van 't Hoff) [kcal/mol] |
| --- | --- | --- | --- | --- | --- | --- | --- |
| Q53E | 0 | 2.2 | 0.1 | 0.98 | 76.1 | -0.8 | 58.8 |
| V64T | 0.19 | 2.01 | – | – | 75.1 | -1.8 | 58.3 |
| E46A | 0.12 | 2.08 | 0.22 | 0.86 | 75.4 | -1.5 | 57.6 |
| Y15F | -0.07 | 2.27 | 0.05 | 1.03 | 76.7 | -0.2 | 56.6 |
| T31S | -0.19 | 2.39 | -0.17 | 1.24 | 77.8 | 0.9 | 59.8 |
| L66E | 1.27 | 0.93 | – | – | – | – | – |
| L66A | 0.07 | 2.13 | – | – | – | – | – |
| R3E | 1 | 1.2 | – | – | 59.1 | -17.8 | 45.6 |
| Q2L | -0.29 | 2.49 | -0.55 | 1.63 | 80.9 | 4 | 57.8 |
| S24D | -0.19 | 2.39 | -0.22 | 1.29 | 77.8 | 0.9 | 61.7 |
| G23Q | 0.31 | 1.89 | 0.29 | 0.79 | 74.7 | -2.2 | 59.5 |
| R3E L66E | – | – | – | – | 44.6 | -32.3 | 36.8 |
| N11S | -0.22 | 2.41 | -0.33 | 1.41 | 79.2 | 2.3 | 58.8 |

From FireProtDB (doi:10.1038/75151)
